{"source": "paper doi:10.1101/2021.08.23.457303", "about": "(bioRxiv, 2021)", "binders": {"B1": {"name": "GST-tagged PRD domain of Dyn2 (domain or fragment)", "chain": "PVPPPVDDTWLQSASSHSPTPQRRPVSSIHPPGRPPAVRGPTPGPPLIPVPVGAAASFSAPPIPSRPGPQSVFANSDLFPAPPQIPSRPVRIPPGIPPGVPSRRPPAAPSRPTIIRPAEPSLLD"}}, "key": {"[1]": {"target": "T1, His-tagged human Bin1 isoform 8 K436X (CNM-associated, truncated SH3 domain) (human, UniProt O00499-8 1-435)", "T1 sequence": "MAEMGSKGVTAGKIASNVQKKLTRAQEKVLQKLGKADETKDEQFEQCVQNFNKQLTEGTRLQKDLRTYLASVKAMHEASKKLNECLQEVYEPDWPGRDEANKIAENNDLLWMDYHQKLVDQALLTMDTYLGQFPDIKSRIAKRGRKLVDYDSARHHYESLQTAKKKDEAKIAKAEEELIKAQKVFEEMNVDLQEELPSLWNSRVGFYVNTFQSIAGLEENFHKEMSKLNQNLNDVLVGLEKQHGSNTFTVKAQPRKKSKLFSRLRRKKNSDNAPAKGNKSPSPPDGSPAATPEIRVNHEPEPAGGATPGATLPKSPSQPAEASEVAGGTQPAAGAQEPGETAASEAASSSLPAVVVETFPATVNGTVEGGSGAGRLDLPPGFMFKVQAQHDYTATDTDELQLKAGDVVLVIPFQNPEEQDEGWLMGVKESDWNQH", "test": "pull-down"}, "[2]": {"target": "T2, His-tagged human Bin1 isoform 8, wild type, full length (human, UniProt O00499-8 1-454)", "T2 sequence": "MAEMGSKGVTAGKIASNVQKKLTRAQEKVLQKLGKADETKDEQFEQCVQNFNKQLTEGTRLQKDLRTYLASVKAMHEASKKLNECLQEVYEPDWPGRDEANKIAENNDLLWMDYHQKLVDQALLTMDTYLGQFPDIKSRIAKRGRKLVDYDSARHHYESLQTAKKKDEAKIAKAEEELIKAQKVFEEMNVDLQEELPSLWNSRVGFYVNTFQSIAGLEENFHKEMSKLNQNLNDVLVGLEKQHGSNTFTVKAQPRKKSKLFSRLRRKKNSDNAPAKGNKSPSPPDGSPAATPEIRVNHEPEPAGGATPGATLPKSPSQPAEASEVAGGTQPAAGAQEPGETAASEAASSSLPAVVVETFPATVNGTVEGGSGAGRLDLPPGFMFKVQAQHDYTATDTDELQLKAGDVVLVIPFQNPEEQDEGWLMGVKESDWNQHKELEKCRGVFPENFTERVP", "test": "pull-down"}}}
{"binder": "B1", "values": [{"measurement": "Kd", "setting": "[1]", "result": 267, "unit": "nM"}, {"measurement": "Kd", "setting": "[2]", "result": 180, "unit": "nM"}]}
